Assay results as given in publication PMC5932034 (2018).

B1: fused FliS−FliC^C construct (FliC^C fused to the C terminus of FliS) [not stated] / cytoplasmic domain of Salmonella enterica serovar Typhimurium FlhA (FlhA^C) [Salmonella enterica serovar Typhimurium ST313] (parent complex)
chain 1: MYTASGIKAYAQVSVESAVMSASPHQLIEMLFDGANSALVRARLFLEQGDVVAKGEALSKAINIIDNGLKAGLDQEKGGEIATNLSELYDYMIRRLLQANLRNDAQAIEEVERLLSNIAEAWKQISPKASFQESRGTASGAGGSEGGGSEGGTSGATEDSDYATEVSNMSRAQILQQAGTSVLAQANQVPQNVLSLLR
chain 2: SLGMEVGYRLIPMVDFQQDGELLGRIRSIRKKFAQDMGFLPPVVHIRDNMDLQPARYRILMKGVEIGSGDAYPGRWLAINPGTAAGTLPGEKTVDPAFGLDAIWIESALKEQAQIQGFTVVEASTVVATHLNHLIGQFSAELFGRQEAQQLLDRVSQEMPKLTEDLVPGVVTLTTLHKVLQNLLAEKVPIRDMRTILETLAEHAPLQSDPHELTAVVRVALGRAITQQWFPGNEEVQVIGLDTALERLLLQALQGGGGLEPGLADRLLAQTQEALSRQEMLGAPPVLLVNHALRPLLSRFLRRSLPQLVVLSNLELSDNRHIRMTATIGGK
B2: fused FliT−FliD^C construct (FliD^C fused to the N terminus of FliT) [Salmonella enterica serovar Typhimurium ST313] / cytoplasmic domain of Salmonella enterica serovar Typhimurium FlhA (FlhA^C) [Salmonella enterica serovar Typhimurium … (parent complex)
chain 1: GAHMSIDETVARYKAQFTQLDTMMSKLNNTSSYLTQQFTAMNKSGGSGGSGSGGSGGMTSTVEFINRWQRIALLSQSLLELAQRGEWDLLLQQEVSYLQSIETVMEKQTPPGITRSIQDMVAGYIKQTLDNEQLLKGLLQQRLDELSSLIGQSTRQKSLNNAYGRLSGMLLVPDAPGAS
chain 2: B1 chain 2

Variants of: B1
Assay: ITC; parent: 1; read off a plot

| Variant | ratio to parent |
| --- | --- |
| chain 2 D95V | ~15 |
| chain 2 I79A | ~10 |
| chain 2 L100A | ~4 |
| chain 2 V121K | ~12 |
| chain 2 V126G | ~15 |

Variants of: B1
Assay: ITC; parent: 1; read off a plot
Remark: another data set of the same source

| Variant | ratio to parent |
| --- | --- |
| chain 1 V13G | ~6.5 |

Variants of: B2
Assay: ITC; parent: 1; read off a plot

| Variant | ratio to parent |
| --- | --- |
| chain 2 E279K | ~5 |
| chain 2 V121K | ~7 |
| chain 2 T129M | ~3.3 |
| chain 2 E279K, chain 2 M280G, chain 2 L281G | ~10 |
| chain 2 I79A | ~6 |
| chain 2 V126G | ~4 |
| chain 2 F98A | ~9 |
